Laboratory results: PMC3695512, “Recognition of two distinct elements in the RNA substrate by the RNA-binding domain of the T. thermophilus DEAD box helicase Hera”
Substitutions are numbered along the chain they refer to.

Legend:
GST-Hera_RBD [1] = target: T1, GST-Hera_RBD (Thermus thermophilus, UniProt O07897 424-510); assay: EMSA; 6 uM RNA; 12% glycerol; Anisotropy: 50 mM Tris/HCl pH 7.5, 150 mM NaCl, 5 mM MgCl2 (Fig 2), 25 C, 50 nM RNA; EMSA: same Tris/NaCl, 12% glycerol, 25 C; NMR: 25 mM Bis-Tris/HCl pH 6.0, 50 mM NaCl, 10% D2O, 37 C; details: protein: recombinant; tags: N-terminal GST; label: 5'-fluorescein; hairpin with 5' single strand
T1 sequence: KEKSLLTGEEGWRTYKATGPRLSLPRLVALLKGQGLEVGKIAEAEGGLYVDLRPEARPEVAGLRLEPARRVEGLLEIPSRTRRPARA

Hera_RBD_dC-tail = target: T2, Hera_RBD_dC-tail (Thermus thermophilus, UniProt O07897 424-491, del492-510); assay: fluorescence anisotropy; 5 mM Mg2+; Anisotropy: 50 mM Tris/HCl pH 7.5, 150 mM NaCl, 5 mM MgCl2 (Fig 2), 25 C, 50 nM RNA; EMSA: same Tris/NaCl, 12% glycerol, 25 C; NMR: 25 mM Bis-Tris/HCl pH 6.0, 50 mM NaCl, 10% D2O, 37 C; details: protein: recombinant; label: 5'-fluorescein; hairpin with 5' single strand
T2 sequence: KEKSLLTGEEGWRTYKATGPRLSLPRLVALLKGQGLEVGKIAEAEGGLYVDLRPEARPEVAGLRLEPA

Hera_K463A = target: T3, Hera_K463A (Thermus thermophilus, UniProt O07897 1-510, K463A); assay: as above; details: protein: recombinant; chain copies: 2; label: 5'-fluorescein; hairpin with 5' single strand
T3 sequence: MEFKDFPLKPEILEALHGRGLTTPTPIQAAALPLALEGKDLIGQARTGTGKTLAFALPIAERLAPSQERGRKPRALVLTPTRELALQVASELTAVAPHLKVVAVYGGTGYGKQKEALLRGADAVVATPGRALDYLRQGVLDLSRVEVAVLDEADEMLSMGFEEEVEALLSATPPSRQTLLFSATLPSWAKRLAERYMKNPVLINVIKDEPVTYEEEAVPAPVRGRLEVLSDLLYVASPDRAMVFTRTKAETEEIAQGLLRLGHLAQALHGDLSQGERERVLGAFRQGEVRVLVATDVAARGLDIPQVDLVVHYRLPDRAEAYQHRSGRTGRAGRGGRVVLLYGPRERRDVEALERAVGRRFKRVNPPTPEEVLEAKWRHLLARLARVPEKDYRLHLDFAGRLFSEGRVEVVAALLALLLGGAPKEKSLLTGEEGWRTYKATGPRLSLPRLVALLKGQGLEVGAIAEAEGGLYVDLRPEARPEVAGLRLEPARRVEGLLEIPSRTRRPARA

Hera_1-491 = target: T4, Hera_1-491 (Thermus thermophilus, UniProt O07897 1-491, del492-510); assay: as above; details: protein: recombinant; chain copies: 2; label: 5'-fluorescein; hairpin with 5' single strand
T4 sequence: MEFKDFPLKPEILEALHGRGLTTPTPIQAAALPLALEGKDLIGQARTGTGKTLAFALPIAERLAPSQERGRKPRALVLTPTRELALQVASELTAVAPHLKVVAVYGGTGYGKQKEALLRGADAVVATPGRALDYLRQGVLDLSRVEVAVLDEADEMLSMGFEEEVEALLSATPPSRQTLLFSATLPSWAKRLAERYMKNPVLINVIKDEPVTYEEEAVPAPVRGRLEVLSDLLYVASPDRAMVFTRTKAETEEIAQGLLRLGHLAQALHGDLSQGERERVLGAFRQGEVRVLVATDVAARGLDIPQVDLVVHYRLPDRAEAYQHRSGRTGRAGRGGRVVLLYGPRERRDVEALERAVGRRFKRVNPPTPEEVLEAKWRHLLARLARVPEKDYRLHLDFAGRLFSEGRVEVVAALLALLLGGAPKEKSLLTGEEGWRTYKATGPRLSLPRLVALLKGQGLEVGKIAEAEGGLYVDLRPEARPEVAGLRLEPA

Hera full-length = target: T5, Hera full-length (Thermus thermophilus, UniProt O07897 1-510); assay: fluorescence anisotropy; no ATP; 5 mM Mg2+; Anisotropy: 50 mM Tris/HCl pH 7.5, 150 mM NaCl, 5 mM MgCl2 (Fig 2), 25 C, 50 nM RNA; EMSA: same Tris/NaCl, 12% glycerol, 25 C; NMR: 25 mM Bis-Tris/HCl pH 6.0, 50 mM NaCl, 10% D2O, 37 C; details: protein: recombinant; chain copies: 2; label: 5'-fluorescein; hairpin with 5' single strand
T5 sequence: T3 sequence with A463K

GST-Hera_RBD [2] = target: T1, GST-Hera_RBD; assay: as above; details: protein: recombinant; tags: N-terminal GST; label: 5'-fluorescein; hairpin with 5' single strand

GCAGGUCCCAAGGGUUGGGCUGUUCGCCCAUU (structured_RNA) [32mer]
Kd (GST-Hera_RBD [1]): ~7 µM | Kd (Hera_RBD_dC-tail): 13 µM | Kd (Hera_K463A): 1000 ± 170 nM | Kd (Hera_1-491): 1100 ± 130 nM | Kd (Hera full-length): 130 ± 70 nM | Kd (GST-Hera_RBD [2]): 450 ± 36 nM
